The results in this text go back to patent US20120087931A1.

pKd: −log10 of the molar value. Where “and” joins values, the source holds several entries; their conditions need not be identical. Equal values may be shown once. Some results are limits rather than exact numbers.

The target of assay [1] is monoclonal antibody cmHsp70.1 as produced by hybridoma cmHsp70.1 (DSM ACC2629). The assay is described as follows: flow cytometry at 4 C, CT26 cells, cmHsp70.1-FITC 5 µg/mL plus TKD 25 µg/mL.
For assay [2] the target is unchanged. The assay is described as follows: flow cytometry at 4 C, CT26 cells, cmHsp70.1-FITC 5 µg/mL plus TKD 12.5 µg/mL.
Assay [3] deals with theta antigen on BW mouse tumor cells. Description: staining of BW mouse cells transfected with theta (method not given).
Assay [4] addresses membrane Hsp70 on mouse tumor cells (mouse) (UniProt Q61696). The assay is described as follows: cell-based or functional assay.
Sequence of UniProt Q61696 (Q61696 2-641): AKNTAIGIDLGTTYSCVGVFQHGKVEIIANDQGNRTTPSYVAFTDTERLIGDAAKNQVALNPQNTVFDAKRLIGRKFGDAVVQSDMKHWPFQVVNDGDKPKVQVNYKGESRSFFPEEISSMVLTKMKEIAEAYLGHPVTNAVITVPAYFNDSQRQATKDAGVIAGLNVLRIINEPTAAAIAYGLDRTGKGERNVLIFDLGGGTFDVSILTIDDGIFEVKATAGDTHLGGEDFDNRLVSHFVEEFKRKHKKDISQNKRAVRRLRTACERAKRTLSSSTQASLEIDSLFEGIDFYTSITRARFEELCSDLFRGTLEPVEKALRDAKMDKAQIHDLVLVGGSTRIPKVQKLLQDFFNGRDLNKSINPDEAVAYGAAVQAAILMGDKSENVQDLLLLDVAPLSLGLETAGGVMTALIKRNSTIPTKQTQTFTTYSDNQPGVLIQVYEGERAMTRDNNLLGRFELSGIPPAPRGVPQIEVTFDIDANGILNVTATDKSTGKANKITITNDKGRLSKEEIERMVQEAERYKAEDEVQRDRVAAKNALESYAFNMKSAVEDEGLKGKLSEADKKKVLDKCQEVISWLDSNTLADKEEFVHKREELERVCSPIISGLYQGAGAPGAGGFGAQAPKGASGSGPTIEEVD
Assay [5] shares this target. The assay is described as follows: flow cytometry, CT26 cells used as ADCC targets (FIG. 8).
For assay [6] the target is unchanged. Description: flow cytometry, CT26 cells used as ADCC targets (FIG. 9A).
The target is the same in assay [7]. The assay is described as follows: flow cytometry, CT26 cells used as ADCC targets (FIG. 9B).
The target is the same in assay [8]. Description: flow cytometry at 4 C, viable ADJ (BALB/c) plasmocytoma cells.
The target is the same in assay [9]. The assay is described as follows: flow cytometry at 4 C, viable MOS162 (C3H) osteosarcoma cells.
Assay [10] has the same target. Description: flow cytometry at 4 C, viable B16/F10 (C57/Bl6) melanoma cells.
The target is the same in assay [11]. Description: flow cytometry at 4 C, viable CT26 (BALB/c) colon carcinoma cells.
In assay [12] the target is purified human Hsp70 protein (human) (UniProt P0DMV8). Description: SPR, Biacore X, 25 C, Hsp70 0.78-50 nM, global fit to a 1:1 model.
Sequence of UniProt P0DMV8 (P0DMV8 whole entry): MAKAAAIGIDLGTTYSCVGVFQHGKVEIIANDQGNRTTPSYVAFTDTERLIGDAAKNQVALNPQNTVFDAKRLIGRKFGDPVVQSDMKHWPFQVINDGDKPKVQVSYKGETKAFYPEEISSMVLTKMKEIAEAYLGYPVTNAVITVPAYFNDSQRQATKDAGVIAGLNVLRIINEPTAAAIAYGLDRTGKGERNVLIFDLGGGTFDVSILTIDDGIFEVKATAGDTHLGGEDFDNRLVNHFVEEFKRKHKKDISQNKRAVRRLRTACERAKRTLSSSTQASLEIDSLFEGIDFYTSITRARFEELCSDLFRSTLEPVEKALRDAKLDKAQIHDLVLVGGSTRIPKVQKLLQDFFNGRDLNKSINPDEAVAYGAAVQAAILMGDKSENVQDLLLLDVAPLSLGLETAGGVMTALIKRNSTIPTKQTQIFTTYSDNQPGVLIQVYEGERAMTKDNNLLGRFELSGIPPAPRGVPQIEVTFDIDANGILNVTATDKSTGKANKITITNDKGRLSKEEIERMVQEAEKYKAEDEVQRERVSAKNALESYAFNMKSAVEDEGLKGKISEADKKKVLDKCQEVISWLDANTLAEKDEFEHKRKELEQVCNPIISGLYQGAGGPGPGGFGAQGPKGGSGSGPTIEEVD
Assay [13] concerns the target membrane Hsp70 on mouse tumor cells (mouse) (UniProt Q61696). Description: flow cytometry, cultured CT26 cells; antibody not named.
Assay [14] has the same target. Description: flow cytometry at 4 C, CT26 cells, cmHsp70.1-FITC 5 µg/mL without peptide.
Assay [15] has the same target. Description: flow cytometry, CT26 cells from tissue culture; antibody not named.
The target is the same in assay [16]. Description: flow cytometry, single cell suspensions of CT26 tumors from mice on day 14; antibody not named.
Assay [17] has the same target. Description: flow cytometry, single-cell suspensions of CT26 tumors from mice on day 14; antibody not named.
The target is the same in assay [18]. Description: flow cytometry at 4 C, viable A20 (BALB/c) B cell lymphoma cells (counted as membrane Hsp70 negative, limit 15%).
Assay [19] shares this target. The assay is described as follows: flow cytometry at 4 C, viable 1048 (BALB/c) pancreatic carcinoma cells (counted as membrane Hsp70 negative, limit 15%).
Assay [20] has the same target. The assay is described as follows: flow cytometry, cmHsp70.1-FITC on viable CT26 mouse colon carcinoma cells; IgG1 isotype control as white histogram.

Take 14-mer Hsp70 peptide TKD (…): the membrane Hsp70+ cells (%) left in the presence of the peptide in assay [1] is < 15%; in assay [2], 44%.
The substance IgG1 O×7.11 mAb (antibody) displayed a positive cells (%) in [3] of 56%.
As for “monoclonal antibody cmHsp70.1 as produced by hybridoma cmHsp70.1 (DSM ACC2629)”, the ADCC against CT26 tumor cells (4 h 51Cr release, unstimulated mouse spleen cells) in assay [4] amounted to 1.4 µg/mL. For the same substance, the Hsp70 membrane-positive cells (%) in assay [5] was 55%; in assay [8] it was 45%; in [9], 70%; in [10] it was 97%; in assay [11], 44%; in assay [18] it was 5%. This substance yielded a Hsp70 membrane-positive cells (%) in assay [19] of 12%. In addition, the membrane Hsp70+ cells (%) in [6] was 60%; in [13], 46.2%; in assay [14], 59% and 60%; in assay [17], 69.8%. Moreover, the cmHsp70.1+ cells (%) in assay [7] worked out at 61%. The pKd in assay [12] is 8.27. For the same substance, the koff in [12] worked out at 0.000379 s⁻¹. This substance also displayed a kon in [12] of 69900 M⁻¹ s⁻¹. Moreover, the Hsp70 membrane positive cells (%) is 56.2% in [15] and 79.8% in assay [16]. Also, in assay [20], the positive cells in the marker gate was 59%.
